In this test the target is ALB蛋白(天然提取). Put plainly: AMC sensor, antibody immobilised at 10 ug/ml, ALB in gradient dilution in PBST.

Usually Kd stands for a measure of binding affinity in units of concentration. A lower Kd goes with a tighter complex. Broadly, the koff is the rate constant with which the complex falls apart. High values mean fast dissociation, low ones slow dissociation. For orientation: kon means the second-order rate constant of association.

For the substance 对照 (antibody), the Kd was determined as 32.4 nM, the koff is 0.000483 s⁻¹ and the kon was determined as 14900 M⁻¹ s⁻¹.

The values are drawn from patent publication CN117088975A.
